The values that follow come from patent US20260176683A1 (RIJKSUNIVERSITEIT GRONINGEN, published 2026).

Assay [1] has as its target His6-TEV-YaxB (full-length YaxB monomer) (Yersinia enterocolitica). The assay can be described thus: 1:1 mixing of monomers, SEC, insertion into lipid bilayers.
The target in assay [2] is T1, C-reactive protein (UniProt P02741 19-224).
T1 construct: also called CRP
T1 sequence: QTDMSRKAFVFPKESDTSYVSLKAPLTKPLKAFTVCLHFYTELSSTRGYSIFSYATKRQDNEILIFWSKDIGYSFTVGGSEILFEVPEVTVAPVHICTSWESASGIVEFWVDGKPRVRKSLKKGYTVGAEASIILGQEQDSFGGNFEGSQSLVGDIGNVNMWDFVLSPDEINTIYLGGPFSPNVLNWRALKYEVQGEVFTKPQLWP
The assay can be described thus: single-nanopore electrophysiology, CRP added to cis.

B1: His6-TEV-YaxA (full-length YaxA monomer) (other)
chain: MSYYHHHHHHDYDIPTTENLTRSSENLYFQSGGTQTQLAIDNVLASAESTIQLNELPKVVLDFITGEQTSVARSGGIFTKEDLINLKLYVRKGLSLPTRQDEVEAYLGYKKIDVAGLEPKDIKLLFDEIHNHALNWNDVEQAVLQQSLDLDIAAKNIISTGNEIINLINQMPITLRVKTLLGDITDKQLENITYESADHEVASALKDILDDMKGDINRHQTTTENVRKKVSDYRITLTGGELSSGDKVNGLEPQVKTKYDLMEKSNMRKSIKELDEKIKEKRQRIEQLKKDYDKFVGLSFTGAIGGIIAMAITGGIFGAKAENARKEKNALISEVAELESKVSSQRALQTALEALSLSFSDIGIRMVDAESALNHLDFMWLSVLNQITESQIQFAMINNALRLTSFVNKFQQVITPWQSVGDSARQLVDIFDEAIKEYKKVYG
Consider B1, for which, in assay [1], the binding result is given as “binds”.

B2: YaxAΔ40BN-strepII-70aa-flex nanopore (other)
chain 1: […]
chain 2: MSYYHHHHHHDYDIPTTENLYFQGWSHPQFEKGSSGSTSNASAGTGSATGSNSTAGASSGNSAGTGTSSGSTGSANSSAGTGSGSATASAGNSGTSTAGNSTAEISTFPHSGLSYPDINFKIFSQGVKNISHLAQFKTTGVEVLQEKALRVSLYSQRLDVIVRESLSSLQVKLENTLALTYFTTLEEIDEALISQDIDEESKSEMRKERINIIKNLSNDITQLKQLFIEKTELLDKSSSDLHNVVIIEGTDKVLQAEQLRQKQLTEDIATKELERKEIEKKRDKIIEALDVIREHNLVDAFKDLIPTGENLSELDLAKPEIELLKQSLEITKKLLGQFSEGLKYIDLTDARKKLDNQIDTASTRLTELNRQLEQSEKLIAGVNAIIKIDQEKSAVVVEAEKLSRAWHIFIHEITALQGTSLNEVELSKPLIKQQIYLESLIKQLI
Take B2: in assay [2], the binding result was “no binding (tested: 20 nM CRP)”.
